# From PMC7261407
# Target: trimeric gp140 clade A HIV-1 92/UG/037 (HIV-1 clade A strain 92/UG/037)
# Assay: SPR
substance,measurement,value
GNA (natural protein),Kd,7.2 nM
